The values that follow come from patent US20040224408A1, “THAP proteins as nuclear receptors for chemokines and roles in transcriptional regulation, cell proliferation and cell differentiation” (published 2004).

For assay [1], the target named is T1, human THAP1 (THanatos (death)-Associated Protein-1), full length (human, UniProt Q9NVV9 1-213).
T1 construct: also called hTHAP1; FLJ10477
T1 sequence: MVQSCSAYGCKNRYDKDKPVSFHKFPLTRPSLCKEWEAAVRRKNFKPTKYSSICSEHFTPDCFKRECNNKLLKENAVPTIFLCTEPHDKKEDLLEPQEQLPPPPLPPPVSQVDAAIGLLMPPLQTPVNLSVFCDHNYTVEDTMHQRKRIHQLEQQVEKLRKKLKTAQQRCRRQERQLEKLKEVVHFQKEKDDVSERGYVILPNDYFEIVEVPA
As to the kind of experiment: yeast two-hybrid, BD7-THAP1 with AD7-SLC/CCL21ΔCOOH; identical results in the opposite orientation. The source says:
For two-hybrid assays, yeast cells were cotransformed with BD7-THAP1 and AD7-SLC/CCL21 or AD7-SLC/CCL21ΔCOOH expression vectors. AD7-SLC/CCL21 or AD7-SLC/CCL21ΔCOOH expression vectors were generated by subcloning BamHI fragment (encoding SLC amino acids 24-134) or BamHI-PstI fragment (encoding SLC amino acids 24-102) from pGKT7-SLC/CCL21 (see example 15) into pGADT7 expression vector (Clontech). Transformants were selected on media lacking histidine and adenine. […] Identical results were obtained by cotransformation of AD7-THAP1 with BD7-SLC/CCL21 or BD7-SLC/CCL21ΔCOOH.

For assay [2], the target named is T1, human THAP1 (THanatos …). Nature of the assay: yeast two-hybrid, pGADT7-THAP1 with pGBKT7-chemokine.
From the text: […]

The target of assay [3] is T2, Glutathione S-transferase (GST) control protein (pGEX-2T) (UniProt P08515 1-218 = GST).
T2 construct: Negative control immobilized on glutathione sepharose; also called GST beads; immobilized GST alone
T2 sequence (P08515 whole entry): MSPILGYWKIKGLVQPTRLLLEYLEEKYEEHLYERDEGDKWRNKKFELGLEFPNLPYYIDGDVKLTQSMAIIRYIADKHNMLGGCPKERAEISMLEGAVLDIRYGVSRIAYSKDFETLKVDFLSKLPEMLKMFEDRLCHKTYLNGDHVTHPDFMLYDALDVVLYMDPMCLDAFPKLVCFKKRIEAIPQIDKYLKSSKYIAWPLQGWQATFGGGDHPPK
Nature of the assay: GST pull-down, immobilized GST control, in vitro translated 35S-labelled chemokine. The protocol:
To confirm the interaction observed in yeast two-hybrid system, we performed in vitro GST pull down assays. THAP1, expressed as a GST-tagged fusion protein and immobilized on glutathione sepharose, was incubated with radiolabeled chemokines that were translated in vitro.
In vitro-translated chemokines were generated with the TNT-coupled reticulocyte lysate system (Promega, Madison, Wis., USA) using as templates pGBKT7-CCL21, -CCL19, -CXCL9, -CXCL10 and CXCL11 chemokine vectors (see Example 32) or pCMV-SPORT6-CCL5 plasmid (Image clone No. 4185200). In vitro-translated IFNγ cytokine was generated similarly using as template plasmid pGBKT7-IFNγ. A 25 μvolume of ³⁵S-labelled chemokine was incubated with immobilized GST-THAP1 or GST proteins overnight at 4° C., in the following binding buffer: 10 mM NaPO4 pH 8.0, 140 mM NaCl, 3 mM MgCl₂, 1 mM dithiothreitol (DTT), 0.05% NP40, and 0.2 mM phenylmethyl sulphonyl fluoride (PMSF), 1 mM Na vanadate, 50 mM β-glycerophosphate, 25 μg/ml chymotrypsine, 5 μg/ml aprotinin, and 10 μg/ml leupeptin. Beads were then washed 5 times in 1 ml binding buffer. Bound proteins were eluted with 2×Laemmli SDS-PAGE sample buffer, fractionated by 10% SDS-PAGE and visualized by fluorography using Amplify (Amersham Pharmacia Biotech). GST/THAP1 specifically bound to chemokines CCL21, CCL19, CCL5, CXCL9, CXCL10 and CXCL11 but not cytokine IFNγ (FIGS. 19 and 20). […] CXCL10 also bound to immobilized GST-THAP1 (indicated by ++ in the column labelled “In vitro binding to GST-THAP1”).

The target of assay [4] is T1, human THAP1 (THanatos …). Nature of the assay: yeast two-hybrid, both orientations (His/Ade selection). The source says:
We then examined whether the leucine zipper/death domain at the C-terminus of Par4, previously shown to be involved in Par4 binding to WT-1 and aPKC, was required for the interaction between THAP1 and Par4. Two Par4 mutants were constructed for that purpose, Par4A and Par4DD. Par4A lacks the leucine zipper/death domain while Par4DD contains this domain. pGBKT7-Par4A(amino acids 1-276) and pGADT7-Par4A. were constructed by sub-cloning a EcoRI-BglII fragment from pGADT7-Par4 into the EcoRI and BamHI sites of pGBKT7 and pGADT7. Par4DD (amino acids 250-342) was amplified by PCR, using pGBKT7-Par4 as template, with primers Par4.4 (5′-[…]-3′) (SEQ ID NO: 193) and Par4.5, and cloned into the EcoRI and BamHI sites of pGBKT7 and pGADT7 to obtain pGBKT7-Par4DD and pGADT7-Par4DD. Two-hybrid interaction between THAP1 and Par4 mutants was tested by cotransformation of AH109 with pGBKT7-THAP1 and pGADT7-Par4A or pGADT7-Par4DD and selection of transformants by His and Ade double auxotrophy according to manufacturer's instructions ([…] two-hybrid system 3, Clontech). […] Similar results were obtained when two-hybrid experiments were performed in the opposite orientation using Par4 or Par4 mutants (Par4A and Par4DD) as baits instead of THAP1 (FIG. 3A).

For the next assay, the target named is T3, human THAP2 (human, UniProt Q9H0W7 1-228, limits assumed).
T3 construct: also called hTHAP2
T3 sequence (Q9H0W7 whole entry): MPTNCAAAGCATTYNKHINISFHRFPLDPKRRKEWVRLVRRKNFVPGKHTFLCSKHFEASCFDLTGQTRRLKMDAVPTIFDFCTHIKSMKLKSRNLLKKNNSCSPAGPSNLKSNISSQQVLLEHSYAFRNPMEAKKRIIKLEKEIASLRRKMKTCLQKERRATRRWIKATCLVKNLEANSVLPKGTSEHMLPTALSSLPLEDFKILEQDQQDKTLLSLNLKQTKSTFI
As to the kind of experiment: yeast two-hybrid using Par-4 wild type bait (FIG. 10B).

For the next assay, the target named is T4, human THAP3 (human, UniProt Q8WTV1 1-239, limits assumed).
T4 construct: also called hTHAP3
T4 sequence: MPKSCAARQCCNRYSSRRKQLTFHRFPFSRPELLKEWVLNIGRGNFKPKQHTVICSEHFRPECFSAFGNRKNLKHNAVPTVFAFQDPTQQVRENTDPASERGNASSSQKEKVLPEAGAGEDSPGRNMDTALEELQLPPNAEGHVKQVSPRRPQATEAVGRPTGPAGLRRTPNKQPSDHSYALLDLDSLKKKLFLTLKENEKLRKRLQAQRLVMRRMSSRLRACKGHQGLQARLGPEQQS
The assay is described as above.

B1: SLC/CCL21ΔCOOH deletion mutant lacking the basic carboxy-terminal extension (ligand)
chain: SDGGAQDCCLKYSQRKIPAKVVRSYRKQEPSLGCSIPAILFLPRKRSQAELCADPKELWVQQLMQHLDKTPSPQKPAQG
notes: Tested as a Gal4-AD or Gal4-BD fusion and as in vitro translated protein; also called SLC/CCL21?COOH
With B1, the binding result with human THAP1 (THanatos …) [1] was “binds”.

B2: human chemokine ELC/CCL19, mature form (amino acids 22-98) (ligand)
chain: GTNDAEDCCLSVTQKPIPGYIVRNFHYLLIKDGCRVPAVVFTTLRGRQLCAPPDQPWVERIIQRLQRTSAKMKRRSS
notes: The range is stated on the GenBank entry; Tested as a Gal4-BD fusion (pGBKT7-CCL19) and as in vitro translated 35S-labelled protein from that vector; also called MIP3b/CCL19
As to B2, the figures for the binding result (with human THAP1 (THanatos …) [2]; in assay [3]) were “binds” and “no binding”, respectively.

B3: human chemokine MIG/CXCL9, mature form (amino acids 23-125) (ligand)
chain: TPVVRKGRCSCISTNQGTIHLQSLKDLKQFAPSPSCEKIEIIATLKNGVQTCLNPDSADVKELIKKWEKQVSQKKKQKNGKKHQKKKVLKVRKSQRSRQKKTT
notes: The range is stated on the GenBank entry; Tested as a Gal4-BD fusion (pGBKT7-CXCL9) and as in vitro translated 35S-labelled protein from that vector
On to B3, for which the binding result with human THAP1 (THanatos …) [2] was “binds”; in assay [3] it was “no binding”.

B4: human prostate apoptosis response-4 protein (PAR4), full length (other)
chain: MATGGYRTSSGLGGSTTDFLEEWKAKREKMRAKQNPPGPAPPGGGSSDAAGKPPAGALGTPAAAAANELNNNLPGGAPAAPAVPGPGGVNCAVGSAMLTRAPPARGPRRSEDEPPAASASAAPPPQRDEEEPDGVPEKGKSSGPSARKGKGQIEKRKLREKRRSTGVVNIPAAECLDEYEDDEAGQKERKREDAITQQNTIQNEAVNLLDPGSSYLLQEPPRTVSGRYKSTTSVSEEDVSSRYSRTDRSGFPRYNRDANVSGTLVSSSTLEKKIEDLEKEVVTERQENLRLVRLMQDKEEMIGKLKEEIDLLNRDLDDIEDENEQLKQENKTLLKVVGQLTR
notes: Tested as a Gal4-BD (pGBKT7-Par4) or Gal4-AD (pGADT7-Par4) fusion in yeast two-hybrid; also called Par4 wild type
Take B4: the binding result with human THAP1 (THanatos …) [4], with human THAP2 and in the assay with human THAP3 was “binds” in each case.
